From patent US20240325557A1, “TREATMENT OF CANCER” (INNATE PHARMA, priority 2020, published 2024)
Substitutions are numbered along the chain they refer to.

T1: Nectin-4 Mutant 9 (L150S/S152A/Q234R/I236S) (Homo sapiens, UniProt Q96NY8, I236S/L150S/Q234R/S152A)
T1 construct: expressed in transfected cells; host or cells: HEK293T
T1 sequence (Q96NY8 32-510 L150S/S152A/Q234R/I236S): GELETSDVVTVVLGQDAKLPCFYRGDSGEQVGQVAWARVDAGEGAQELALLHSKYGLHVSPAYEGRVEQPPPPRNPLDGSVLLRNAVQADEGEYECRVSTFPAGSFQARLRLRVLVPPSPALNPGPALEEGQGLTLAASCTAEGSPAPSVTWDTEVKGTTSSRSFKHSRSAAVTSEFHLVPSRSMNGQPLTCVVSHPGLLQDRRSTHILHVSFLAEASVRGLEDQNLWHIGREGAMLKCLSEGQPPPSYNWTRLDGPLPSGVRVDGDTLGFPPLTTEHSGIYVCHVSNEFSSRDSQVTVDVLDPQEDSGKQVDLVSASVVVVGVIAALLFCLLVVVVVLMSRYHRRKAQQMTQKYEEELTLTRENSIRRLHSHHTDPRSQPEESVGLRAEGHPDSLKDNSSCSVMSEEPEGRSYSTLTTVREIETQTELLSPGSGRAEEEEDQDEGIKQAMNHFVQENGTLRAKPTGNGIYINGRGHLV

T2: Nectin-4 Mutant 2 (V90S/P92A/A93S/E95A/G96D) (Homo sapiens, UniProt Q96NY8, A93S/E95A/G96D/P92A/V90S)
T2 construct: expressed in transfected cells; host or cells: HEK293T
T2 sequence (Q96NY8 32-510 V90S/P92A/A93S/E95A/G96D): T1 sequence (Q96NY8 32-510 L150S/S152A/Q234R/I236S) with V59S, P61A, A62S, E64A, G65D, S119L, A121S, R203Q, S205I

T3: wild-type human Nectin-4 protein (huNectin4-his-BirA) (Homo sapiens, UniProt Q96NY8)
T3 sequence (Q96NY8 with tags, fused parts or gaps): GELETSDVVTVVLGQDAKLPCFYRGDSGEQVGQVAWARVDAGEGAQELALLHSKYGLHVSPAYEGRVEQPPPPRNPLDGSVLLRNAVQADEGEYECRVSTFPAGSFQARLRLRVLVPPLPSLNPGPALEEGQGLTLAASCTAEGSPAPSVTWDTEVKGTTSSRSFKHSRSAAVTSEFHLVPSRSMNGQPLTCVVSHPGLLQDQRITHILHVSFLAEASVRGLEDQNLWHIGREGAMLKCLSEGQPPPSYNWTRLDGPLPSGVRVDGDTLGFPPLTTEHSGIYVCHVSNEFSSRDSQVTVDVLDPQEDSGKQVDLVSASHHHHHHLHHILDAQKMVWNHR

B1: 5E7 (antibody, V domains shown)
VH: QVQLQQPGAELVKPGASVKLSCKASGYIFTSYWMHWVKQRPGQGLEWIGEIDPSDSYTNYNQKFKGKATLTLDKSSSTTYMQLSSLTSEDSAVYYCVRGYGNYGDYWGQGTTLTVSS
VL: DVVMTQAAFSNPVTLGTSASISCRSSKSLLHSNGITYLYWYLQKPGQSPQLLIYQMSNLASGVPDRFSSSGSGTDFTLRISRVEAEDVGVYYCAQNLELPWTFGGGTKLEIK
B2: 10B12: anti-Nectin-4 antibody, VH SEQ ID NO: 24, VL SEQ ID NO: 25, binds junction of domain C1 and V (antibody, listed as Mus musculus, V domains shown)
VH: B1 VH with I28T, L72V, T79A
VL: B1 VL with V2I
B3: N41 (antibody, V domains shown)
VH: QVQLKQSGPGLVQPSQSLSITCTVSGFSLTNYGVHWVRQSPGKGLEWLGVIWSGGSTDYNAAFISRLSISKDTSKSQVFFKMNSLQADDTAIYYCARELIHAMDNWGQGTSVTVSS
VL: DIQMTQSPASLSVSVGETVTITCRASENIYSNLAWYQQKQGNSPQLLVFAATNLADGVPSRFSGSGSGTQYSLKINSLQSEDFGTYYCQHFWGTPTFGGGTKLEIK

target: T1, Nectin-4 Mutant 9 (L150S/S152A/Q234R/I236S); test: Binding to cell surface expressed Nectin-4 point mutant; conditions: HEK-293T
Excerpt: (§1) Combined with the published structures of the Nectin-4 domains, Nectin-4 mutations at surface exposed amino acids residues were designed. Nectin-4 domain structure was modelled based on Protein Data Bank reference: 4FRW (domains V et C1). Human Nectin-4 used was NCBI Reference Sequence: NP_112178.2, mouse Nectin-4 used was NCBI Reference Sequence: AAL79833.1, cynomolgus Nectin-4 used was NCBI Reference Sequence: XP_005541277.1, rat Nectin-4 used was NCBI Reference Sequence: NP_001102546.1. The cells expressing the Nectin-4 mutants are then be used for testing anti-Nectin-4 antibodies for loss of binding to different Nectin-4 mutants to identify antibodies that bind to the same site on Nectin-4. […] FIGS. 12A and 12B show a molecular model of the human Nectin-4 protein, indicating the position of substituted residues in mutants 7 (12A) and in mutants 7bis (12B); these mutants are in the C1 domain identify two sites at the junction of domain C1 and V domain that are on opposing faces of the Nectin-4 protein.
(§2) Nectin-4 mutants were generated by PCR. The sequences amplified were run on agarose gel and purified using the Macherey Nagel PCR Clean-Up Gel Extraction kit. The purified PCR products generated for each mutant were then ligated into an expression vector, with the ClonTech InFusion system. The vectors containing the mutated sequences were prepared as Miniprep and sequenced. After sequencing, the vectors containing the mutated sequences were prepared as Midiprep using the Promega PureYield™ Plasmid Midiprep System. HEK293T cells were grown in DMEM medium (Invitrogen), transfected with vectors using Invitrogen's Lipofectamine 2000 and incubated at 37° C. in a CO2 incubator for 48 hours prior to testing for transgene expression. The targeted amino acid mutations are shown in Table 2 below, listing the residue present in wild-type Nectin-4/position of residue/residue present in mutant Nectin-4, with position reference being to the Nectin-4 protein with leader peptide shown in SEQ ID NO: 1.

Molecule | association with Nectin-4 Mutant 9
B1 | +
B2 | +
B3 | +

target: T2, Nectin-4 Mutant 2 (V90S/P92A/A93S/E95A/G96D); test: as above; conditions: HEK-293T
Excerpt: as §1, §2

Molecule | association with Nectin-4 Mutant 2
B1 | +
B2 | +
B3 | +

target: T3, wild-type human Nectin-4 protein (huNectin4-his-BirA); test: Affinity determination by SPR (Biacore T200); format: binding; conditions: 25° C.
Method: Antibodies were tested for binding affinity to the wild-type human Nectin-4 protein by SPR (Surface Plasmon Resonance) methods. Measurements were performed on a Biacore T200 apparatus (Biacore GE Healthcare) at 25° C. Sensorgrams were analyzed with Biacore T100 Evaluation software. A CMR Sensor Chip with immobilized Protein A at about 600 RU was used. Anti-Nectin-4 antibodies were captured onto the Protein-A chip (antibodies diluted to 1 μg/ml in HBS-EP+1× buffer and injected over 120s at 40 μL/min). Recombinant human monomeric huNectin4-his-BirA protein was injected at different concentrations in a range from 100 nM to 1.56 nM over captured antibodies (HuNectin4-His-BirA diluted in HBS-EP+1× in ½ dilutions, injected over 120s at 40 μl/min) and allowed to dissociate for 600s. The chip was regenerated with NaOh 10 mM 2× for 30s at 40 μl/min. The sensorgram sets were fitted using the 1:1 kinetic binding model or two state reaction model, as a function of the profile of the curves.

Molecule | ka | kd
B1 | 620000 M⁻¹ s⁻¹ | 0.003 s⁻¹
B2 | 860000 M⁻¹ s⁻¹ | 0.01 s⁻¹
B3 | 580000 M⁻¹ s⁻¹ | 0.00087 s⁻¹
